From the supplement of paper PMC9170038

Test system: MS2 coat protein
Assay: apparent KD of MS2 coat protein; higher = weaker reporter binding
Settings: Eterna round: R107
Experimental: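 RNA-MaP round R107: designed RNA switches with theophylline, tryptophan, arginine or FMN aptamers are transcribed on-chip within common flanks. They are titrated with SNAP-549-labelled MS2 coat protein in RNA-MaP buffer (100 mM Tris pH 7.5, 80 mM KCl, 4 mM MgCl2), without ligand or with the indicated ligand. Median apparent KD per design.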

[1] = input ligand: theophylline 20 uM
[2] = input ligand: theophylline 2 mM
[3] = input ligand: tryptophan 2.4 mM

| Sequence | apparent KD of MS2 coat protein (input ligand: arginine 13.2 mM) [nM] | apparent KD of MS2 coat protein (input ligand: none) [nM] | apparent KD of MS2 coat protein [1] [nM] | apparent KD of MS2 coat protein [2] [nM] | apparent KD of MS2 coat protein [3] [nM] |
| --- | --- | --- | --- | --- | --- |
| UCGUAGGUAGGAAGGAGCGCAUACUUCACAUGAGGAUCACCCAUGUCGAGACGUGAGUCAGUGCAGGUAGGUCGCCUAGCUAUGA [Same State - Arginine B (Freestyle 25)] | 18.2 | 26 | 35.7 | 28.3 | 18.7 |
| AUCAUGGCCAUCGAUACCAGCUACAUGAGGAUCACCCAUGUAAACGGCGCGGUGAGAUGUAGCCCUUGGCAGCGAAGGGUCAAGG [Beonrexe] | 16.4 | 16.8 | 49.2 | 64 | 19.6 |
| AUCUGUAUGUUUUCGUGUUUUAUUACAGAUACCAGACUAUACGUUGUCCCUUGGCAGCUGGAUGACAUGAGGAUCACCCAUGUUG [#27 Exclusion-TheophyllineA] | 24 |  | 41.2 |  | 31.8 |
| UACUUGCUGACGGCCGCCACUAGUACAUGAGGAUCACCCAUGUACGGUCGCCCGGUGUGAUCCACUAGGACCGGGUCAGCAAGAU [(Trp1)-(Ms2)-(T)'-(M)'-(Trp2)_Design24] | 38.4 |  | 42.9 | 48.5 |  |
| GAAGGAGAACUCAUGACUCCUUCCCUGGAAGGAGCGAGCGAAAGCUCAGGUAGGUCGCCAGAAACAUGAGGAUCACCCAUGUAAU [(A)''-(M)'-(A)'-(Arg1)-(Arg2)-(M1)-(M2)_Design4] | 28.5 | 37.4 | 48 | 43.3 | 40.1 |
| CUCUCAUGAACAUGAGGAUCACCCAUGUAACGAGGACCGGUACGGCCGCCACUCGGUCGUGGAAACUAAUCGAGUGAGGUGGGAG [Tryp A Ex t5c] | 26.8 | 44.4 | 85.7 | 75.3 | 254 |
| UUCUACAUGAGGAUCACCCAUGUAAACGAUACCAGACGAGUAUUAGUCCCUUGGCAGCGUAGAGUGUCGUUUAUAGUAGGAUACC [TheoA-ms2@5] | 23.4 |  | 26.1 |  | 21 |
| ACGUCACGUUUACUCGUGGUUUCGAUCGAUACCAGUAGCGAGAGUUACCCUUGGCAGCGACAUGAGGAUCACCCAUGUACGAAGA [XTheo A #25] | 10.8 |  | 14.5 |  | 12 |
| CCUCGACAUGAGGAUCACCCAUGUAGAGAUACCAGCCUGUGAGAUGGCCCUUGGCAGCUCAUAUAGGGUACGGGAGUCGUUUCGA [Eslaqu] | 19.4 | 22.2 | 48.4 | 263 | 22.1 |
| GGUUACUCUACGGCCGCCACUGUUAAAUAAUAAACCUGUACAUAAACAUGAGGAUCACCCAUGUACAGGACCGGGUAGUGUAACC [Tryptophan B 8] | 27.6 |  | 41 | 35 |  |
| GUACAUGAGGAUCACCCAUGUAUAGUUGAAGGAGCGACCAGAGGGUCAGGUAGGUCGCAGCACAUGGUGAAAACCCGUGUAUGCC [#1 Exclusion - Arginine A Attempt #21 (Inspired by Pi)] | 40.4 | 33.4 | 61.7 | 49.1 | 27.6 |
| AUGGAGACCUCGGCCGCCACUCUCCAUGAGGAUCUCCCAUGUAACAUGAGGAUCACCCAUGUACUGAGGACCGGGAGGUCCUUGA [Same State Tryptophan B GF 17] | 7.9 |  | 10.8 | 10.1 |  |
| AUAUAUGACAGAAGGAGCGCCAUGAACACACAUGAGGAUCACCCAUGUUUUUUUUGUGUUUGGCAGGUAGGUCGCUGACAUGAAA [Same State Arginine B 3] | 9.45 | 8.71 | 17.7 | 11.6 | 9.98 |
| AGUAAUCUAAGAGAUACCAGACGGUAUAUAACAUGAGGAUCACCCAUGUUUUGGGUGUACGUCCCUUGGCAGCUCAAAAUGAUAA [#06 Same State - Theophylline B] | 123 |  | 202 |  | 382 |
| UGUCGAAACUGAAGGAGCGAGAUGACAAACAUGAGGAUCACCCAUGUUAUGGGUUGUUAAUCUCAGGUAGGUCGCAGUGACAAAA [Same State Arginine B GF 16] | 88.2 | 106 | 86.8 | 150 | 103 |
| UGUAUGUGAUCUGAUACCAGUCCCUUGGCAGCAACAUGAGGAUCACCCAUGUAGAUACCAGACCCUUGGCAGCAGAUCGCAUACU [#DoubleAptamer 1] | 8.55 |  | 9.15 |  | 8.2 |
| GGGAGGGAGGCGGCCGCCACUGAUUUUCAUAUAUAUAUAACAUGAGGAUCACCCAUGUGGAUAUACAGGACCGGGCCUUUUUUUU [aaaH] | 17.6 |  | 30.1 | 19.1 |  |
| GGUUGAUGGUCGGCCGCCACUGUUGGUGCCAUGAGUUAAGUAUAGCACAUGAGGAUCACCCAUGUCAGGACCGGGACUCUACCCG [theeternabot_exclusion_MS2_Trp_B_16] | 15.1 |  | 19.6 | 20.9 |  |
| CUCUGAGUGAGGAAUCACUCAGAGGCGGAUACCAGCGAGGUCCAUCGCCCUUGGCAGCCGAACAUGAGGAUCACCCAUGUCGGUA [#1 Same State - Theophylline A Attempt #23 (HarryS)] | 9.44 | 9.45 | 12.1 | 13.5 | 9.3 |

| Sequence | apparent KD of MS2 coat protein (input ligand: arginine 13.2 mM) [nM] | apparent KD of MS2 coat protein (input ligand: none) [nM] | apparent KD of MS2 coat protein [1] [nM] | apparent KD of MS2 coat protein [2] [nM] | apparent KD of MS2 coat protein [3] [nM] |
| --- | --- | --- | --- | --- | --- |
| AGCUCGCAUCCUCUAGCGUCAAAGACGCGUCGAGGACCGGUACGGCCGCCACUCGACGUGAGGAUCACCCACGUCUAAGCGAGCA [TrypAX 10 #SwitchBubble #AlternativeMS2 #MS2Late #CuTurnoff] | 19.7 | 25.5 | 31.7 | 30.6 | 295 |
| UUGGUACAUGAGGAUCACCCAUGUACUGAAGGAGCGGGACGAAUCUCAGGUAGGUCGCAGACAUGAGGAUCACCCAUGUAUUGGU [Exclusion Arginine A GF 16] | 18.9 | 13 | 16.4 | 19 | 16.5 |
| UGGUCACUAGGAGAUACCAGCCGACAUGAGGAUCACCCAUGUAACCGGCGUCCUCCCUUAGGCCCUUGGCAGCUCGUAGUUGCUC [Vebice] | 11.9 |  | 22.5 |  | 12.6 |
| CUCAUCCACGCGGCCGCCACUACUUGUAGGUGUGGGUGUGUUGUGUUACAUGAGGAUCACCCAUGUAGGACCGGGCGUGGAUGAG [Whale] | 53.9 | 62.7 | 85.6 | 83.8 | 213 |
| UGACAUUGCUCAGAUACCAGACGUGAGGAUCACCCACGUGCCAACAAGUACAUAAUAAAUGUCCCUUGGCAGCUGAGCAAUGUCU [TheoBX 17 #MS2Left #Theo2 #AlternativeMS2] | 16.4 | 11.2 | 15.2 | 15.1 | 10.9 |
| AUCUACGUGGGUGAUACCAGCUGGUUAGUACACAUGAGGAUCACCCAUGUGCAGGCAGGCAGCCCUUGGCAGCACCGCAGUGGCU [theeternabot_sameState_MS2_Theo_B_36] | 42.8 |  | 221 |  | 60.9 |
| AACGUAUACAGAAGGAGCGUGAAUUAUAUUACUCAUUCAUAUACAUGAGGAUCACCCAUGUCACAGGUAGGUCGCUGUAUUCGUA [JR_ExcArginiB_Sub020] | 55.9 | 82.2 | 92 | 86.9 | 65.4 |
| GACAAUAAUUCAACAAUCAAAAUAGUGGGACGAGGACCGGUACGGCCGCCACUCGCUGAAGCACAUGAGGAUCACCCAUGUCUAA [theeternabot_exclusion_MS2_Trp_A_47] | 14.8 |  | 19.8 | 18.7 |  |
| CAGAGCUACCGGGAUACCAGAAUUGGUAUUCCUAUAUUUCUUACAUGAGGAUCACCCAUGUUCCCUUGGCAGCUUGGUAGCUCUG [ETHB #9] | 45.1 |  | 87.6 |  | 68.8 |
| UAAUAAAUAAGUGAUACCAGCGAGAAAACAUGAGGAUCACCCAUGUUCGCCCAUGUUAAGCGCCCUUGGCAGCACAAAUAUAAAA [AstrosExyTheB#1] | 25.6 |  | 42.7 |  | 33.6 |
| GCGAUGGAGCGAAGGAGCGUGCUGGUACAUGAGGAUCACCCAUGUGAGUCGCAGCGCUAAGCACAGGUAGGUCGCGCUCCAUCGC [EAB NP+V+V2 #11] | 49.1 | 28 | 35.3 | 34.5 | 34.2 |
| UCCACACAUGAGGAUCACCCAUGUUGAGAUACCAGUAAACCAAAAUACCCUUGGCAGCUCCUACGCUCUUACAGCGGGAAUAUCC [theeternabot_sameState_MS2_Theo_A_46] | 14.3 |  | 19.5 |  | 14.9 |
| CGAUAUAUACGAAGGAGCGACAUGAGGAUCACCCAUGUCUACCACGUCGAAAGACGCUCAUGUCAGGUAGGUCGCGUAUAUAUCG [Astros-Eli-mod9] | 56.7 | 137 | 123 | 239 | 117 |
| UUCUACGGCGAUCUGGGUUUACCAGAUCGACGAGGACCGGUACGGCCGCCACUCGUGUUUCUUUAACAUGAGGAUCACCCAUGUA [#11 Tryptophan A Same State] | 53 |  | 78.7 | 66.1 |  |
| CUAUAAAUAUGAAGGAGCGUCGAAAAUGGGUAAACAUGAGGAUCACCCAUGUAAAGGGAACGACAGGUAGGUCGCAUAUUUAUAG [AstromonsSSArgB#11] | 139 | 180 | 188 | 257 | 219 |
| UAUACAUGGUAUAAAUAUAUAUAUAAGAAACGAGGACCGGUACGGCCGCCACUCGUGCCGGAAACAUGAGGAUCACCCAUGUAUU [AK1 Exclusion TrypA mod IceBolt] | 21 |  | 39.3 | 49.6 |  |
| AGCGGCUCGAAAGAGUCGCACUCAUGUGAAGGAGCGCGCGUAAGCGCAGGUAGGUCGCACAUGAGGAUCACCCAUGUACCUUCUA [MAT - Exclusion Arginine A - Mod of Eli - D21] | 68.5 | 235 | 206 | 262 | 118 |
| AAUAAUAUCCUCAUGUGAGUCGUACCGUAACGAGGACCGGUACGGCCGCCACUCGAACAUGAGGAUCACCCAUGUAGGUACGACA [M'-T'-T-MS2-T'' - Design 8] | 42.1 |  | 182 | 238 |  |
